Test results reported in US20220112276A1 (Janssen / Centocor, published 2022).

How the values were obtained:
[1] = biological target: T1, human pIgR extracellular domain (ECD) (human, UniProt P01833 19-638); experiment: SPR, VHH captured by anti-Fc, ECD analyte
T1 construct: Bought from R&D Systems (Cat 2717-PG-050); also called hpIgR ECD
Procedure: In an assay, two flow cells of the SPR were used, in which the flow cell 1 ran the buffer reference, and the flow cell 2 ran the analyte. […] The HBSP (GE) buffer was followed at a flow rate of 30 μL/min. Then, the VHHs were captured on the anti-human Fc protein surface at 0.5 ug/ml (˜200-300 RU) on the flow cell 2. The running buffer was changed to HBSP with 100 ug/ml BSA after the capture. Next, the pIgR extracellular domains were used as analyte and loaded in a series of concentrations, starting at 30 nM with further 3-fold dilution series.
The extracellular domains were prepared as follows: cynomolgus monkey and rat extracellular domains were produced and characterized in house; mouse and human pIgR extracellular domains were purchased from R&D Systems (Cat #2800-PG-050 & 2717-PG-050 respectively). The pIgR extracellular domains were injected from low to high concentration using a single-cycle kinetics method. The off-rate was monitored at 30 minutes after the last or highest concentration injection. The reference run was completed under the same conditions except that the pIgR injection was replaced by buffer injection.
The raw data were processed by subtracting two sets of reference data from the response data: (1) reference flow cell 1 subtracted from sample flow cell 2; and (2) buffer blank run subtracted from experimental run. The processed data at all concentrations for each VHH were globally fit to a 1:1 simple Langmuir binding model to extract estimates of the kinetic constants (kₒₙ, koff) and affinity constants (KD).

[2] = biological target: T2, recombinant human pIgR (hpIgR) (human, UniProt P01833 19-638, limits assumed); experiment: ELISA, periplasmic VHH, BSA subtracted
T2 construct: probably the ECD
Summary of the method: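 His-tagged VHH in periplasmic extracts (osmotic shock, non-suppressor E. coli) were tested by ELISA for binding to pIgR. Bound nanobody was detected with polyclonal anti-alpaca VHH antibody in the initial screen and anti-VHH antibody on retest. Signal on BSA, run in parallel, was subtracted from the pIgR signal.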

T2 sequence (P01833 19-638 limits assumed): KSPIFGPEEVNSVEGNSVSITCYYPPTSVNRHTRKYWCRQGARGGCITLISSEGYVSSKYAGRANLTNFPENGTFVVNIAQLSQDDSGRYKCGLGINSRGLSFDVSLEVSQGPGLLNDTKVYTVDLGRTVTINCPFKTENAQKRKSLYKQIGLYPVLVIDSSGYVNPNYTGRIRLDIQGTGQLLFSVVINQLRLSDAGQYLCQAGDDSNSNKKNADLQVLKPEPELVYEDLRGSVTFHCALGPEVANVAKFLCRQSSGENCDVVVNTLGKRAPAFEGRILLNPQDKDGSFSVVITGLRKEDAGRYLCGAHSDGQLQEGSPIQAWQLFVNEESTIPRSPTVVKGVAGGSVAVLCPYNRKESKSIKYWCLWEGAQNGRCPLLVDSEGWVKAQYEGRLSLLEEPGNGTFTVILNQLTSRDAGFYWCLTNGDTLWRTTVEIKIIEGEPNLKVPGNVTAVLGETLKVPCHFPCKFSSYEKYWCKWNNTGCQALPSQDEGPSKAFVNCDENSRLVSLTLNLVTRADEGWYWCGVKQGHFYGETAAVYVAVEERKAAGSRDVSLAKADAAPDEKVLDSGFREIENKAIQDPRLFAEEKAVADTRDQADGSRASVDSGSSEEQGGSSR
T1 sequence (P01833 other isoform, or with tags, fused parts or gaps): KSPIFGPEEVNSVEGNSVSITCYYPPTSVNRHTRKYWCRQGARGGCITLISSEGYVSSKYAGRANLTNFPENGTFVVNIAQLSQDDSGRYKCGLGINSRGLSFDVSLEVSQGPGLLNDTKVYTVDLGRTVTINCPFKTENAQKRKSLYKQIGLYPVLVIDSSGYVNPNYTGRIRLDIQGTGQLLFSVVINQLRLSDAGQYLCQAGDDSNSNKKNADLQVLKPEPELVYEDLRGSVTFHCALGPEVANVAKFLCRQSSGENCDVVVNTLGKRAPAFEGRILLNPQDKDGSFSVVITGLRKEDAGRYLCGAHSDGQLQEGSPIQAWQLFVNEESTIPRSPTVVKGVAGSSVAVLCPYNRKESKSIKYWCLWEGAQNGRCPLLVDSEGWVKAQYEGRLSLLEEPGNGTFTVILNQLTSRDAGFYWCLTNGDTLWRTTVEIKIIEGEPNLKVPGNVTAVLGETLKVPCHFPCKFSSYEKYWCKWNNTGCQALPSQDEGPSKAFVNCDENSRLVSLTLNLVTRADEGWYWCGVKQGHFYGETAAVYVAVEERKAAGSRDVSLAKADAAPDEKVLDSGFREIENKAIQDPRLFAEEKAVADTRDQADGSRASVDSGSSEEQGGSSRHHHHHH

Kd [1] [nM] | ELISA (OD) [2] [OD] | Binder
1.29 | – | 02G04R3 VHH Mono-Fc (Fc fusion) QVQLVESGGGLVQAGGSLRLSCAANGRAANAYAVGWFRQAPGKEREFVAHIRWNGGRTAYADSVKGRFTISRDDAKNTVYLQMDSLKPEDTAVYYCAEDTNPDAFGDLRLPSEYEYWGQGTQVTVSSSPAPELLGGPSVFLFPPKPKDTLMISRTPEVTCVVVDVSHEDPEVKFNWYVDGVEVHNAKTKPREEQYNSTYRVVSVLTVLHQDWLNGKEYKCKVSNKALPAPIEKTISKAKGQPREPQVYTKPPSREEMTKNQVSLSCLVKGFYPSDIAVEWESNGQPENNYKTTVPVLDSDGSFRLASYLTVDKSRWQQGNVFSCSVMHEALHNHYTQKSLSLSPGK
– | 1.83 | 01H10R2 His-tagged VHH (VHH) VHH: QVQLVESGGGLVQPGGSLRLSCAASGRTSSISTMGWFRQAPGKEREFVTAIRWSGSSSYKYYADSVKGRFTISRDNARNTVYLQMNSLKPEDTAVYYCAAQMSLWRDPREIDYDYWGQGTLVTVSS
– | 2.19 | 01G07R3 His-tagged VHH (VHH) VHH: QVQLVESGGGLVQAGDSLRLSCAASGRTLSFDTYAMGWFRQAPGKEREFVASIDWSGGTTYYADSVKGRFTVTRDNAKNTVTLRMNSLKPADTAVYYCAAAQYYRSGTSFPANYWGQGTLVTVSS
– | 1.97 | 01H02R3LS His-tagged VHH (VHH) VHH: QVQLVESGGGLVQPGGSLRLSCAASGSIFSASVMGWYRQGPGKQREFVARISPGGVTHYADSVKGRFTISKDNAKNTVTLQMNSLKPEDTAVYYCNADRFGFEVYWGQGTLVTVSS
– | 2.15 | 01G05R2LS His-tagged VHH (VHH) VHH: QVQLVESGGGLVQAGDSLALSCAGSGDTFSNYAMGWFRQAPGKEREFVADISWYSANIGYADSVKGRFTISRDNAKNMVTLRMNSLKPEDTAVYYCAADRNHWPVKGDYWGQGTQVTVSS
1.97 | – | 03A08R3 VHH Mono-Fc (Fc fusion) QVQLVESGGGLVQAGGSLRLSCAASGRTSSIYGMGWFRQAPGKEREFVAAISWSAGRTYHADSVKGRFTISRDNAKNMVYLQMDKMKPGDTAVYYCAARRAPELLSDYTQKPEEIGTYHYWGQGTLVTVSSSPAPELLGGPSVFLFPPKPKDTLMISRTPEVTCVVVDVSHEDPEVKFNWYVDGVEVHNAKTKPREEQYNSTYRVVSVLTVLHQDWLNGKEYKCKVSNKALPAPIEKTISKAKGQPREPQVYTKPPSREEMTKNQVSLSCLVKGFYPSDIAVEWESNGQPENNYKTTVPVLDSDGSFRLASYLTVDKSRWQQGNVFSCSVMHEALHNHYTQKSLSLSPGK
– | 1.11 | 01H08R3 His-tagged VHH (VHH) VHH: QVQLVESGGGSVQTGGSLRLSCTASGRTFSNYGMGWFRQAPGKEREFVAGITRSGRTTYYYYADAVKGRFTIPRDNADNTIYLQMDSMKPDDTAVYYCAARQGENNYDPRSGSAYNYWGPGTQVTVSS

The remaining lines, values behind:

Binder | Kd [1] [nM] | ELISA (OD) [2] [OD]
02C10R3 His-tagged VHH (VHH) VHH: EVQLVESGGGLVQPGGSLRLSCAASGFTFSSFTMTWFRQAPGKGLGWVSRISSDGTGTNYADSVKGRFTISRDNAKNTLYLRMNSLKPEDTAVYYCAIADDSSTRGQGTLVTVSS | – | 2.05
02C10R3 VHH Mono-Fc (Fc fusion) EVQLVESGGGLVQPGGSLRLSCAASGFTFSSFTMTWFRQAPGKGLGWVSRISSDGTGTNYADSVKGRFTISRDNAKNTLYLRMNSLKPEDTAVYYCAIADDSSTRGQGTLVTVSSSPAPELLGGPSVFLFPPKPKDTLMISRTPEVTCVVVDVSHEDPEVKFNWYVDGVEVHNAKTKPREEQYNSTYRVVSVLTVLHQDWLNGKEYKCKVSNKALPAPIEKTISKAKGQPREPQVYTKPPSREEMTKNQVSLSCLVKGFYPSDIAVEWESNGQPENNYKTTVPVLDSDGSFRLASYLTVDKSRWQQGNVFSCSVMHEALHNHYTQKSLSLSPGK | 2.09 | –
01G09R3LS His-tagged VHH (VHH) VHH: EVQLVESGGGLVQAGDSLRLSCAASGRTFPTYAMGWFRQAPGKEREFVATIRWSGSTQYKYYADFVKGRFTISRDNAKNTVYLQMDSLKPEDTAVYYCAATTLLTDPRALNAYAYWGQGTQVTVSS | – | 1.9
03H01R3 VHH Mono-Fc (Fc fusion) EVQLVESGGGLVQAGGSLRLSCAASGRTSSIYNMGWFRQAPGQEREFVAAIHWGGGRTYYADSVKGRFTISRDNAKNTVYLQMNSLEPGDTANYYCAARRAPELLDDYKQKPEEIGTYHYWGQGTQVTVSSSPAPELLGGPSVFLFPPKPKDTLMISRTPEVTCVVVDVSHEDPEVKFNWYVDGVEVHNAKTKPREEQYNSTYRVVSVLTVLHQDWLNGKEYKCKVSNKALPAPIEKTISKAKGQPREPQVYTKPPSREEMTKNQVSLSCLVKGFYPSDIAVEWESNGQPENNYKTTVPVLDSDGSFRLASYLTVDKSRWQQGNVFSCSVMHEALHNHYTQKSLSLSPGK | 0.15 | –
01G03R3L His-tagged VHH (VHH) VHH: QVQLVESGGGSVQAGGSLRLSCAASGRTFSNYAMGWFRQAPGKEREFVAGISRSGGSTYSADSVKGRFTISRDNAKNTVYLQMNSLKPEDTAVYYCAADGLDYALGFRGDYWGQGTLVTVSS | – | 0.74
01C02R2 VHH Mono-Fc (Fc fusion) EVQLVESGGGLVQAGGSLRLSCAASGRSYAMGWFRQAPGKEREFAAAISWSGSRTYYADAVKGRFTISRDNAKNTVYLQMNSLKPEDTAVYYCAADPDGTVVASSGWTNSYEYGYWGQGTLVTVSSSPAPELLGGPSVFLFPPKPKDTLMISRTPEVTCVVVDVSHEDPEVKFNWYVDGVEVHNAKTKPREEQYNSTYRVVSVLTVLHQDWLNGKEYKCKVSNKALPAPIEKTISKAKGQPREPQVYTKPPSREEMTKNQVSLSCLVKGFYPSDIAVEWESNGQPENNYKTTVPVLDSDGSFRLASYLTVDKSRWQQGNVFSCSVMHEALHNHYTQKSLSLSPGK | 0.275 | –
01F12R2 His-tagged VHH (VHH) VHH: EVQLVESGGGLVQPGGSLRLSCAASGRTFSSYTMGWFRQAPGEEREFVSAISWSSDGTYYKYYTDTVKGRFTISRDNAETTVHLQMNSLKPEDTAVYYCAASSSGTYGDPRSEREYRYWGQGTLVTVSS | – | 2.12
02B12R3 His-tagged VHH (VHH) VHH: QVQLVESGGGWVQTGGSLRLSCAASGRTVSSYYMGWFRQTPGKEREFVAAISWVGSSTYKYYTDSAKGRFTISRDNAKNTVYLQMNSLKPEDTAVYYCAARPRVGDPRSRYDDDNWGQGTQVTVSS | – | 2.38
01F09R3 His-tagged VHH (VHH) VHH: QVQLVESGGGLAQAGGSLTLSCAASGTAAGIDVMGWYRQTPGNSREFVARIFSNDVTHYADSVTGRFTLSRTQDKNTVSLQMNSLKPDDTGVYYCNARIWTGSTTVDYWGQGTQVTVSS | – | 1.85
01F03R3LS VHH Mono-Fc (Fc fusion) EVQLVESGGGLVQAGGSLRLSCAASGRTINGYVMGWFRQAPGEEREFVARIDWSGSSTDYADSVKGRFTISRDNAKITVYLQMNSLKPEDTAVYYCAGSAYYSGYVTHRDFGSWGQGTLVTVSSSPAPELLGGPSVFLFPPKPKDTLMISRTPEVTCVVVDVSHEDPEVKFNWYVDGVEVHNAKTKPREEQYNSTYRVVSVLTVLHQDWLNGKEYKCKVSNKALPAPIEKTISKAKGQPREPQVYTKPPSREEMTKNQVSLSCLVKGFYPSDIAVEWESNGQPENNYKTTVPVLDSDGSFRLASYLTVDKSRWQQGNVFSCSVMHEALHNHYTQKSLSLSPGK | 10.9 | –
01D09R3 VHH Mono-Fc (Fc fusion) QVQLVESGGGLVQAGGSLRLSCAASGRTFSVYAMGWFRQAPGKERQFVAAITWSGGSTSYADSVKGRFTISRDNAKNTVYLQMNILKPEDTAVYYCAAATNPYFSDYYPDLKYEFDYWGQGTLVTVSSSPAPELLGGPSVFLFPPKPKDTLMISRTPEVTCVVVDVSHEDPEVKFNWYVDGVEVHNAKTKPREEQYNSTYRVVSVLTVLHQDWLNGKEYKCKVSNKALPAPIEKTISKAKGQPREPQVYTKPPSREEMTKNQVSLSCLVKGFYPSDIAVEWESNGQPENNYKTTVPVLDSDGSFRLASYLTVDKSRWQQGNVFSCSVMHEALHNHYTQKSLSLSPGK | 2.76 | –
01A09R3L His-tagged VHH (VHH) VHH: EVQLVESGGGVVQAEDSLRLSCAASGLSFSLSRMGWFRQAPGKEREFVATIEWSGRSTYKYYDDSVKGRFAVSGDNTKNTMNLQMKGLNLEDTGVYYCAANPNNYGDPRTPGAYQYWGQGTQVTVSS | – | 1.98
01H10R3 His-tagged VHH (VHH) VHH: QVQLVESGGGLVQAGGSLRLSCAASGRAFSQYTMGWFRQAPGKEREFVTAIRWSGGSIYKYYADSVKGRFTISGDNARNTVDLQMNSLKPEDTAVYYCAARMSPWGDPRGNEYDYWGQGTLVTVSS | – | 1.54
